Reference: article PMC7057348

What was measured:
Assay in all cases: SPR; Biacore T200; omalizumab, Fabs and scFv immobilised on CM5 chips by amine coupling; IgE-Fc injected in a twofold dilution series (100-0.4 nM), 20 µl/min, 240 s association, 900 s dissociation; 25°C; 20 mM HEPES pH 7.4, 150 mM NaCl, 0.005% (v/v) surfactant P20; biphasic model with one higher-affinity and one lower-affinity interaction
[1] = biological target: FabXol (wild-type omalizumab Fab)
[2] = biological target: FabXol2 (omalizumab-derived Ser81Arg, Gln83Arg light-chain mutant Fab)
[3] = biological target: FabXol3 (omalizumab-derived Ser81Arg, Gln83Arg, Leu158Pro light-chain mutant Fab)
[4] = biological target: Omalizumab (intact anti-IgE monoclonal IgG1 antibody)
[5] = biological target: scFvXol (omalizumab-derived scFv)

- koff1 (biphasic model) [1]: 0.00056 s⁻¹
- koff2 (biphasic model) [1]: 0.012 s⁻¹
- kon1 (biphasic model) [1]: 570000 M⁻¹ s⁻¹
- kon2 (biphasic model) [1]: 440000 M⁻¹ s⁻¹
- koff1 (biphasic model) [2]: 0.00045 s⁻¹
- koff2 (biphasic model) [2]: 0.011 s⁻¹
- kon1 (biphasic model) [2]: 510000 M⁻¹ s⁻¹
- kon2 (biphasic model) [2]: 330000 M⁻¹ s⁻¹
- koff1 (biphasic model) [3]: 0.00033 s⁻¹
- koff2 (biphasic model) [3]: 0.009 s⁻¹
- kon1 (biphasic model) [3]: 970000 M⁻¹ s⁻¹
- kon2 (biphasic model) [3]: 270000 M⁻¹ s⁻¹
- koff1 (biphasic model) [4]: 0.0007 s⁻¹
- koff2 (biphasic model) [4]: 0.012 s⁻¹
- kon1 (biphasic model) [4]: 330000 M⁻¹ s⁻¹
- kon2 (biphasic model) [4]: 290000 M⁻¹ s⁻¹
- koff1 (biphasic model) [5]: 0.00029 s⁻¹
- koff2 (biphasic model) [5]: 0.0087 s⁻¹
- kon1 (biphasic model) [5]: 690000 M⁻¹ s⁻¹
- kon2 (biphasic model) [5]: 310000 M⁻¹ s⁻¹
Substance: IgE-Fc (Fc region of immunoglobulin E) (domain or fragment)
